Source: the supplement of paper PMC10567573
± gives the standard deviation.

Test: protein stability index of a GFP-peptide fusion (GPS, HEK-293T) (PSI 1-6); higher = more stable
[1] = treatment: DMSO, c terminus: a fixed tail appended
[2] = treatment: MLN4924 1 uM, 8 h, c terminus: a fixed tail appended
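Note: 24-mer peptide tiles fused after GFP, lentivirally expressed, FACS-sorted into six equal bins by GFP/DsRed ratio, decoded by Illumina sequencing, PSI is the read-weighted mean bin number.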

| Sequence | protein stability index (treatment: DMSO, c terminus: native) | protein stability index (treatment: MLN4924 1 uM, 8 h, c terminus: native) | protein stability index [1] | protein stability index [2] |
| --- | --- | --- | --- | --- |
| AFRALASAQCPQFGIPRKRLKQS [SPOPL] | 2.74 ± 0.19 | 2.83 ± 0.16 | – | – |
| DEPTFKVLLKTADPRYELPSRKYI [ZBED1] | – | – | 2.81 ± 0.26 | 3.19 ± 0.4 |
| LRDIRAQYESIAAKNLQEAEEWYK [PRPH] | – | – | 4.24 ± 0.24 | 4.33 ± 0.41 |
| LFYSAEVEMLCDQAWGSMLEVPAG [CCDC3] | – | – | 1.92 ± 0.53 | 2.26 ± 0.41 |
| RYVEFNLLYDRGTKFGLFTPGSRI [CPOX] | – | – | 2.52 ± 0.75 | 2.26 ± 0.27 |
| KSNVLKLKTADWRVFLFQAPSKEE [PSD2] | – | – | 2.33 ± 0.077 | 2.44 ± 0.28 |
| FGGQDENKQTLSSGEKYDPDANTW [GAN] | – | – | 5.06 ± 0.074 | 5.01 ± 0.35 |
| PFKQVAEMLSASRYPTISMVKPLL [ZBED1] | – | – | 1.97 ± 0.4 | 2.19 ± 0.38 |
| DDSKFPIEDTPLVPVSFIFIFTFV [PCDHGA10] | – | – | 3.32 ± 0.36 | 2.09 ± 0.062 |
| CHELLGHVPLLAEPSFAQFSQEIG [TPH1] | – | – | 3.1 ± 0.27 | 3.02 ± 0.26 |
| EPSELDNPFQDPAVIQHRPSRQYA [SCAMP3] | – | – | 4.67 ± 0.22 | 4.77 ± 0.13 |
| RGDPLGGCQVSPEGYAHLTHLLMG [HDAC6] | – | – | 2.35 ± 0.31 | 2.71 ± 0.47 |
| YRNLTHNPPSDFSFQNMNSKRKAE [STK38L] | – | – | 4.47 ± 0.17 | 4.58 ± 0.087 |
| SEGDLKNAIRVHHALATRASDYSK [PSD2] | – | – | 4.04 ± 0.11 | 4.22 ± 0.18 |
| ISQEEFARQLQLSDPQTVAGAFGY [LPCAT4] | – | – | 3.41 ± 0.43 | 3.09 ± 0.41 |
| IRVMVHGRNHTPFLGHHSFSVRPG [SCNN1D] | – | – | 2.55 ± 0.24 | 2.85 ± 0.88 |
| AVNQEAMNNAQRIEKWVILEKDFS [ACSBG2] | – | – | 3.16 ± 0.31 | 3.47 ± 0.46 |
| PIVPKIAGDGDTSNFETYPENDWD [PRKX] | – | – | 5.51 ± 0.17 | 5.37 ± 0.32 |
| LVVQIDNAKLAADDFRTKYQTEQS [KRT33B] | – | – | 3.18 ± 0.19 | 3.36 ± 0.16 |
| VCKGLPQHEEICLGLFTLILTEPA [INTS3] | – | – | 2.53 ± 0.47 | 2.5 ± 0.48 |
| TSAAALSPMSAATLGGLNPSPSEV [SMTNL2] | – | – | 4.61 ± 0.21 | 4.62 ± 0.31 |
| DNDRTTPSDLDSTGNSLNEPEEPS [DLC1] | – | – | 5.61 ± 0.21 | 5.63 ± 0.11 |
| RYHLQQNVHFKEETVKLFICELVM [STK32A] | – | – | 2.35 ± 0.41 | 2.46 ± 0.26 |

| Sequence | protein stability index (treatment: DMSO, c terminus: native) | protein stability index (treatment: MLN4924 1 uM, 8 h, c terminus: native) | protein stability index [1] | protein stability index [2] |
| --- | --- | --- | --- | --- |
| SHQYDRIYCGAGVQKDHENYMKIL [PCMTD1] | – | – | 2.38 ± 0.16 | 2.39 ± 0.2 |
| RIADKFTQHNFQEVMESEEFMLLP [KLHL20] | – | – | 3.5 ± 0.35 | 3.54 ± 0.22 |
| VTQNSTAEPSRFSSSDSDFDDEEP [FCHO1] | – | – | 5.52 ± 0.25 | 5.55 ± 0.14 |
| KMFLRTREPALDGGFQMHYEKTPF [EID1] | – | – | 2.83 ± 0.25 | 3.05 ± 0.4 |
| EDQHRLYQQIKAGAYDFPSPEWDT [CAMK2D] | – | – | 4.36 ± 0.26 | 4.42 ± 0.21 |
| FSLRVHTGCHKKLGPEARRPRTRW | – | – | 2.66 ± 0.28 | 3.06 ± 0.094 |
| EMEEELRYAPLSFRNPMMSKLRNY [VTI1B] | – | – | 2.78 ± 0.28 | 3.01 ± 0.25 |
| LKDDIYIRYQSFNNQSDLEKEMQK [PRIM1] | – | – | 4.41 ± 0.08 | 4.27 ± 0.26 |
| PSEDIWKKFELVPSPPTSPPWGLG [MYCL] | – | – | 3.04 ± 0.36 | 2.9 ± 0.37 |
| KARKTYERLVAQFPSSGRFWKLYI [CSTF3] | – | – | 2.57 ± 0.39 | 2.44 ± 0.35 |
| MPLLRDIIKMATARQETKEMARKV [ZER1] | – | – | 2.99 ± 0.3 | 3.06 ± 0.19 |
| RQARKKGRHLELANQKLSEKLAAG [CCDC3] | – | – | 4.777 ± 0.006 | – |
| LSTFSVPYFLFQHWATGYSKSSHP [SOAT1] | – | – | 2.11 ± 0.4 | 2.56 ± 0.79 |
| LGCQGAQFVSSVPRCDLVDLGEGK [FAM189A2] | – | – | 4.31 ± 0.14 | 4.18 ± 0.13 |
| AVAQTAHLPADSEVTLEANPTSAP [RSAD1] | – | – | 5.4 ± 0.14 | 5.35 ± 0.23 |
| LIYVVIDLPINVFKLLAGRWPFDH [EDNRA] | – | – | 2.27 ± 1 | 3.04 ± 0.23 |
| SFGVDEEERVRVLQGVRLSENVVN [CHCHD6] | – | – | 4.39 ± 0.2 | 4.59 ± 0.15 |
| CLTQSTAAPAVRASSSPVTLRQKT [SLA] | – | – | 4.02 ± 0.35 | 4.35 ± 0.052 |
| PDAIRSRSNTLRERSQVRGSAPPR [PCDHGC5] | – | – | 5 ± 0.33 | 4.84 ± 0.23 |
| DEDDVDQELANIDPTWIESPKTNG [SRPK2] | – | – | 5.23 ± 0.63 | 5.2 ± 0.36 |
| ALGTSWTLPLQDRELGPEELDELQ [CABP4] | – | – | 5.4 ± 0.097 | 5.23 ± 0.16 |
| ATQQARKRNFISSKSKQPAGHRRP [C22orf31] | – | – | 4.58 ± 0.27 | 4.71 ± 0.31 |
| CALNALTTTVCLVAAALRYLQIFA [FAM189A2] | – | – | 2.75 ± 0.37 | 3.1 ± 0.23 |

| Sequence | protein stability index (treatment: DMSO, c terminus: native) | protein stability index (treatment: MLN4924 1 uM, 8 h, c terminus: native) | protein stability index [1] | protein stability index [2] |
| --- | --- | --- | --- | --- |
| LDSCKQLTLAQGAGEEDPSGMVTI [SMG5] | – | – | 4.46 ± 0.16 | 4.49 ± 0.4 |
| FTEAMTHFPASPFWSVMFFLMLIN [SLC6A17] | – | – | 2.36 ± 0.23 | 2.14 ± 0.56 |
| ARIYEETLNILLYEAQDGRGPDNA [KCTD10] | – | – | 3.23 ± 0.28 | 3.04 ± 0.6 |
| PEVTSALLESLNQQRLQGQLCDVS [ZBTB22] | – | – | 3.57 ± 0.23 | 3.65 ± 0.35 |
| NGVTQKASAPTYPSLYSSYHQGCL [NANOGP8] | – | – | 2.75 ± 0.11 | 2.93 ± 0.34 |
| EGLYEQAFQLLRRFVQAEGRRATL [TRADD] | – | – | 2.28 ± 0.13 | 2.23 ± 0.54 |
| NVLVDPSARIGQNCSIGPNVSLGP [GMPPB] | – | – | 3.61 ± 0.088 | 3.43 ± 0.25 |
| LQFLYTGQLDEKEKDLVGLAQIAE [RHOBTB1] | – | – | 2.38 ± 0.29 | 2.83 ± 0.25 |
| ALGILIFEMLSGFPPFFDDNPFGI [PRKX] | – | – | 3.11 ± 1.7 | 3.31 ± 0.25 |
| PRVPEEAAQDRPMSPGDCPPETTE [YJU2B] | – | – | 5.46 ± 0.26 | 5.4 ± 0.37 |
| FQAPCQRCGKFLQDGLPPTWRDFR [MED27] | – | – | 2.56 ± 0.72 | 2.28 ± 0.33 |
| PDDYRCSYRIHNGQKLVVPGLLGS [FBXO3] | – | – | 2.68 ± 0.46 | 2.66 ± 0.34 |
| PRGRLDLATQSLTVETCRALGKLL [LRRC45] | – | – | 2.38 ± 0.28 | 2.31 ± 0.31 |
| TAAMRCMCPLYDPNRQLWIELAPL [GAN] | – | – | 2.22 ± 0.51 | 2.16 ± 0.55 |
| GLGNIWRFPYLCQKNGGGAYLVPY [SLC6A17] | – | – | 2.44 ± 0.43 | 2.54 ± 0.49 |
| GGRALVVRKVPPGYSIKVFDFERS [SMAD6] | – | – | 2.52 ± 0.33 | 2.37 ± 0.51 |
| KGGISETRIEKRIVITGDADIDHD [EPB41L3] | – | – | 5.31 ± 0.2 | 5.16 ± 0.51 |
| SRIKGWWVFHHYVSTFLSGVMLTW [TMEM120A] | – | – | 2.55 ± 0.24 | 2.37 ± 0.36 |
| LTYGEVRNSKASAYCLDQGAEDGD [GALNT9] | – | – | 5.37 ± 0.29 | 5.3 ± 0.29 |
| QSLPCTERKPAATARLSRRGTSLS [KISS1] | – | – | 4.71 ± 0.2 | 4.66 ± 0.32 |
| EKAFSYRQMAFDFARVKKGADGVM [SNAP91] | – | – | 2.67 ± 0.16 | 2.86 ± 0.31 |
| RGLHEDLQGVPERLLGTAGTEEKK [VTI1B] | – | – | 5.38 ± 0.07 | 5.58 ± 0.26 |
| VFKQAKDKVSDGVTKSPEKRSSLP [MAP2] | – | – | 4.92 ± 0.16 | 4.93 ± 0.099 |

| Sequence | protein stability index (treatment: DMSO, c terminus: native) | protein stability index (treatment: MLN4924 1 uM, 8 h, c terminus: native) | protein stability index [1] | protein stability index [2] |
| --- | --- | --- | --- | --- |
| ELERAQHELLLGSLQQQHQADLEL [FBF1] | – | – | 4.15 ± 0.21 | 4.49 ± 0.28 |
| SGNGDFGDWSAFNQAPSGPVASSG [CLINT1] | – | – | 4.37 ± 0.13 | 4.38 ± 0.11 |
| FLGLFFIVRFLESNWFVWVTQMNH [FADS1] | – | – | 3.69 ± 0.72 | 3.25 ± 0.32 |
| DLCLLYPPFMIALACLHVACVVQQ [CCNC] | – | – | 3.11 ± 0.28 | 3.12 ± 0.24 |
| LPYLEHVGHNHTYNMAPSALDSAD [NFE2L1] | – | – | 4.42 ± 0.15 | 4.44 ± 0.11 |
| SHWDLNHTHPSACQGQRLFEKLLQ [PLD5] | – | – | 2.56 ± 0.43 | 2.54 ± 0.3 |
| TPMRVALAGTFHYYSCERAKKAMG [NSDHL] | – | – | 2.48 ± 0.5 | 2.38 ± 0.16 |
| MLYAKPPPTINGIKGLQRKERLKP [KRT34] | – | – | 3.1 ± 0.28 | 3.43 ± 0.19 |
| CLETLPEFRDDRDLVMALSAGGHG [KCNA4] | – | – | 3.68 ± 0.26 | 3.51 ± 0.34 |
| VERKRLRNRLAATKCRKRKLERIA [JUNB] | – | – | 4.07 ± 0.42 | 4.2 ± 0.34 |
| IDYKTTTILLDGRRVRLELWDTSG [RAB40C] | – | – | 2.25 ± 0.61 | 2.21 ± 0.26 |
| PDSVPSLQNMGLLLDKLAKENQDI [PBXIP1] | – | – | 4.48 ± 0.18 | 4.42 ± 0.15 |
| VSRMRTQRAFSIQTPEQYYFCYKA [PTPN9] | – | – | 2.56 ± 0.18 | 2.43 ± 0.27 |
| HARARDQGQPAMEGHCVIQVDVGD [PCDHGC5] | – | – | 4.61 ± 0.068 | 4.58 ± 0.23 |
| ITVTQSHLVIQNLFEGMIWFLVPI [CDS1] | – | – | 3.25 ± 0.45 | 3.24 ± 0.34 |
| ETPGSAVDYPLHDLVLHTNYTATV [TNXB] | – | – | 2.83 ± 0.18 | 2.87 ± 0.55 |
| EFKSSFSQSFSLYVKYQVAIHQDP [ATE1] | – | – | 2.63 ± 0.95 | 2.52 ± 0.95 |
| GMGLTGTMGMGMPNIAMTSGTVQP [CLINT1] | – | – | 3.84 ± 0.17 | 3.69 ± 0.13 |
| LEEVNDEGYTPLMEAAREGHEEMV [ANKRD17] | – | – | 5.49 ± 0.08 | 5.52 ± 0.23 |
| VIDGATALWCAAGAGHFEVVKLLV [FEM1B] | – | – | 2.49 ± 0.89 | 2.36 ± 0.35 |
